Results reported in publication PMC3438196.

Molecular target: Apobec3G L184A MAPPIT bait (human) (UniProt Q9HC16)
Experiment: two-hybrid; MAPPIT (mammalian two-hybrid) in intact HEK293T cells: bait on the EpoR/leptin receptor chimera, prey on gp130 fragments, pXP2d2-rPAP1-luciferase reporter; fold induction of luciferase, Epo-stimulated (10 ng/ml hEpo) over unstimulated; 6-well or 96-well calcium phosphate transfection

Sequence of Apobec3G L184A MAPPIT bait (human) (Q9HC16 whole entry L184A, the tested form may be a part): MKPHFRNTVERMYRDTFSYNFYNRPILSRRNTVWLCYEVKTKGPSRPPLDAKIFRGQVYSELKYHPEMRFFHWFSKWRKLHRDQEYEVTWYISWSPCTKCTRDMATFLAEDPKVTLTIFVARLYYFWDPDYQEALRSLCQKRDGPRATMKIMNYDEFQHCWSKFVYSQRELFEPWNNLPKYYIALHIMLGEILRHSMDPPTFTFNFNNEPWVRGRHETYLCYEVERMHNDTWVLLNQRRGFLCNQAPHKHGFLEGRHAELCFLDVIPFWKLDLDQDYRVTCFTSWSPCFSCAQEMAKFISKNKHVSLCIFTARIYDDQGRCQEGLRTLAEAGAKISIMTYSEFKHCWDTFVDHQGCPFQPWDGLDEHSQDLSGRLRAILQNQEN

## Gagpol MAPPIT prey (pMG2-Gagpol) (natural protein)
  MAPPIT signal, % of WT: 110 % of WT
